The supplement of paper PMC9112550, “Optimization of the antimicrobial peptide Bac7 by deep mutational scanning” (BMC Biology, 2022)

System: Escherichia coli TOP10
Experiment: shrunken log2 fold change of peptide-encoding DNA abundance (4.5 h post-induction vs induction); higher = less antimicrobial activity (less host growth inhibition)
Settings: time post-induction: 4.5 h; library: site-saturation at positions 5, 18, 19, 20
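Also: peptides expressed intracellularly from a pBAD plasmid library in pooled LB shake-flask culture, induced with 0.3% L-arabinose, DNA abundance read by NGS, three biological replicates, DESeq2 with apeglm shrinkage.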

Row | Sequence | shrunken log2 fold change
1 | RRIRNRPPRLPRPRPRPFLWPRP | -0.199
2 | RRIRDRPPRLPRPRPRPSCHPRP | -0.287
3 | RRIRMRPPRLPRPRPRPLHPPRP | 0.439
4 | RRIRFRPPRLPRPRPRPHPGPRP | -0.137
5 | RRIRMRPPRLPRPRPRPILAPRP | 0.261
6 | RRIRLRPPRLPRPRPRPNTEPRP | 0.019
7 | RRIRIRPPRLPRPRPRPVDEPRP | -0.0203
8 | RRIRCRPPRLPRPRPRPLIKPRP | -0.311
9 | RRIRYRPPRLPRPRPRPTMFPRP | -0.234
10 | RRIRSRPPRLPRPRPRPKIIPRP | -0.0525
11 | RRIRPRPPRLPRPRPRPDMSPRP | -0.303
12 | RRIRWRPPRLPRPRPRPAYDPRP | 0.126
13 | RRIRGRPPRLPRPRPRPMWSPRP | 0.89
14 | RRIRKRPPRLPRPRPRPWSAPRP | 0.0935
15 | RRIRHRPPRLPRPRPRPWGEPRP | -0.0132
16 | RRIRCRPPRLPRPRPRPDIGPRP | -0.293
17 | RRIRARPPRLPRPRPRPKYEPRP | 0.13
18 | RRIRFRPPRLPRPRPRPLVYPRP | -0.631
19 | RRIRGRPPRLPRPRPRPQIDPRP | 0.565
20 | RRIRERPPRLPRPRPRPVYYPRP | 0.0224
21 | RRIRKRPPRLPRPRPRPLRIPRP | 0.648
22 | RRIRHRPPRLPRPRPRPTVEPRP | -0.0265
23 | RRIRDRPPRLPRPRPRPNWYPRP | -0.476

Row | Sequence | shrunken log2 fold change
24 | RRIRNRPPRLPRPRPRPDKDPRP | -0.253
25 | RRIRMRPPRLPRPRPRPRYEPRP | -0.0771
26 | RRIRGRPPRLPRPRPRPRGDPRP | 0.481
27 | RRIRDRPPRLPRPRPRPNPHPRP | -0.247
28 | RRIRSRPPRLPRPRPRPDLHPRP | -0.0732
29 | RRIRDRPPRLPRPRPRPKMEPRP | -0.00783
30 | RRIRKRPPRLPRPRPRPLYFPRP | -0.271
31 | RRIRGRPPRLPRPRPRPIYCPRP | 0.112
32 | RRIRKRPPRLPRPRPRPYPLPRP | -0.095
33 | RRIRGRPPRLPRPRPRPAFLPRP | 0.367
34 | RRIRIRPPRLPRPRPRPKQFPRP | -0.328
35 | RRIRERPPRLPRPRPRPWETPRP | 0.11
36 | RRIRVRPPRLPRPRPRPDQNPRP | -0.0845
37 | RRIRERPPRLPRPRPRPFMRPRP | 0.154
38 | RRIRNRPPRLPRPRPRPQPVPRP | 0.0704
39 | RRIRDRPPRLPRPRPRPEYAPRP | 0.815
40 | RRIRQRPPRLPRPRPRPWILPRP | -0.00158
41 | RRIRRRPPRLPRPRPRPHKRPRP | 0.124
42 | RRIRIRPPRLPRPRPRPYITPRP | -1.34
43 | RRIRLRPPRLPRPRPRPAACPRP | 0.267
44 | RRIRKRPPRLPRPRPRPDWHPRP | 0.0739
45 | RRIRWRPPRLPRPRPRPQVHPRP | 0.0992
46 | RRIRVRPPRLPRPRPRPHGWPRP | 0.492

Row | Sequence | shrunken log2 fold change
47 | RRIRNRPPRLPRPRPRPVVIPRP | -0.077
48 | RRIRHRPPRLPRPRPRPTAYPRP | -0.23
49 | RRIRERPPRLPRPRPRPKNSPRP | -0.52
50 | RRIRGRPPRLPRPRPRPFFGPRP | 0.188
51 | RRIRMRPPRLPRPRPRPRLDPRP | 0.897
52 | RRIRERPPRLPRPRPRPWKDPRP | -0.162
53 | RRIRYRPPRLPRPRPRPRPCPRP | -0.117
54 | RRIRQRPPRLPRPRPRPWSSPRP | -0.0435
55 | RRIRIRPPRLPRPRPRPMWMPRP | -0.0849
56 | RRIRGRPPRLPRPRPRPRGVPRP | 0.89
57 | RRIRTRPPRLPRPRPRPADHPRP | -0.0507
58 | RRIRMRPPRLPRPRPRPIRIPRP | -0.0023
59 | RRIRVRPPRLPRPRPRPQKDPRP | -0.187
60 | RRIRIRPPRLPRPRPRPRTIPRP | -0.141
61 | RRIRRRPPRLPRPRPRPIKKPRP | 0.907
62 | RRIRSRPPRLPRPRPRPDVVPRP | -0.448
63 | RRIRKRPPRLPRPRPRPDGIPRP | 0.00242
64 | RRIRNRPPRLPRPRPRPYWYPRP | -0.177
65 | RRIRVRPPRLPRPRPRPERNPRP | -0.323
66 | RRIRFRPPRLPRPRPRPGFFPRP | 0.023
67 | RRIRNRPPRLPRPRPRPWKNPRP | 0.175
68 | RRIRIRPPRLPRPRPRPQHNPRP | -0.735
69 | RRIRWRPPRLPRPRPRPFDCPRP | -0.0389

Row | Sequence | shrunken log2 fold change
70 | RRIRKRPPRLPRPRPRPKGAPRP | 0.217
71 | RRIRLRPPRLPRPRPRPTMIPRP | -0.164
72 | RRIRRRPPRLPRPRPRPCAMPRP | -0.0039
73 | RRIRYRPPRLPRPRPRPGRPPRP | 0.0326
74 | RRIRDRPPRLPRPRPRPMHDPRP | 0.122
75 | RRIRRRPPRLPRPRPRPGGNPRP | 0.475
76 | RRIRGRPPRLPRPRPRPKNIPRP | -0.101
77 | RRIRTRPPRLPRPRPRPFYGPRP | -0.473
78 | RRIRQRPPRLPRPRPRPHEFPRP | -0.287
79 | RRIRGRPPRLPRPRPRPQRHPRP | 0.338
80 | RRIRNRPPRLPRPRPRPQQAPRP | -0.356
81 | RRIRIRPPRLPRPRPRPVMPPRP | -0.142
82 | RRIRQRPPRLPRPRPRPAGYPRP | -0.101
83 | RRIRMRPPRLPRPRPRPSTMPRP | -0.283
84 | RRIRIRPPRLPRPRPRPGTVPRP | -0.624
85 | RRIRYRPPRLPRPRPRPVSGPRP | -0.128
86 | RRIRPRPPRLPRPRPRPGQAPRP | -0.0745
87 | RRIRARPPRLPRPRPRPLVKPRP | 0.0577
88 | RRIRDRPPRLPRPRPRPYMSPRP | -0.00753
89 | RRIRLRPPRLPRPRPRPGFFPRP | 0.0646
90 | RRIRWRPPRLPRPRPRPGRLPRP | -0.0636
91 | RRIRVRPPRLPRPRPRPDCAPRP | 0.0509
